Experimental data from the supplement of paper PMC10567573.

B1: COX4I1 (parent)
chain: VAHVKHLSASQKALKEKEKASWSS

Variants of: B1
Test: protein stability index of a GFP-peptide fusion (GPS, HEK-293T) (PSI 1-6); higher = more stable
Details: c terminus: a fixed tail appended
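Also: lentivirally expressed fusions sorted by FACS into six bins by GFP to DsRed ratio, PSI derived from sequencing read proportions per bin multiplied by bin number.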

Protein stability index, by site and new letter:
K12: P 3.58; R 3.07; F 2.92; I 2.71; V 3.77; M 2.77; L 3.32; S 3.64; N 3.13; A 2.61; C 2.33; Q 3.86; G 2.65; E 3.52; W 2.69; Y 2.98; T 3.32; H 2.84; D 3.88
A9: Y 2.06; F 3.55; G 2.38; Q 3.01; T 2.93; E 4.11; D 3.87; W 2.47; I 3.35; V 3.09; N 3.43; S 3.59; P 3.19; K 3.07; R 3.7; H 3.19; C 2.42; M 3.03; L 3.23
H6: A 3.24; T 2.97; I 3.24; N 3.38; D 3.81; F 2.78; S 3.38; P 3.98; M 3.12; C 3.21; V 2.96; W 2.32; G 3.45; L 3.3; Y 2.5; R 3.41; Q 4.45; K 3.51; E 3.87
K5: S 3.72; N 3.45; H 2.93; V 3.1; P 3.64; T 3.66; G 3.88; L 3.28; D 3.27; C 2.61; E 3.69; F 2.45; A 3.67; R 2.65; Y 2.55; W 2.65; I 2.4; Q 3.12; M 2.78
H3: D 4.11; P 3.73; K 3.16; M 3.43; F 2.52; L 2.6; Q 3.28; C 2.75; T 3.77; S 3.27; G 3.22; N 4.5; A 3.44; Y 2.7; I 2.58; E 4.11; R 3.19; W 2.1; V 3.13
V1: Y 2.7; T 4.03; W 2.41; E 3.79; M 3.05; P 3.53; C 3.06; K 3.57; F 2.34; Q 4.05; A 3.05; R 3.83; N 3.96; D 3.98; L 2.95; I 3.35; H 3.25; S 3.73; G 4.06
E16: C 2; A 3.67; Q 2.72; N 3.05; L 2.36; W 2.31; G 2.38; P 2.75; S 2.64; D 3.48; R 2.8; V 2.03; Y 2.56; M 2.46; K 3.17; F 2.21; H 3.56; T 2.93; I 2.54
L14: W 3.2; T 2.89; H 3.61; G 3.1; A 3.2; K 3.65; I 3.46; Q 3.48; E 3.54; C 3.12; V 3.38; D 3.92; S 3.05; F 2.88; M 3.62; Y 3.09; R 3.7; N 3.98; P 3.41
S10: I 2.37; R 3.16; P 3.39; Y 2.28; G 3.46; K 2.66; C 1.97; Q 3.12; F 2.83; W 2.26; H 3.05; M 2.94; D 4.01; N 3.98; L 2.58
